Experimental findings from US20250026846A1 (JCR PHARMACEUTICALS, published 2025) are described below.

Assay [1] has as its target T1, recombinant human TfR (r human TfR: Sino Biological Inc.), hTfR extracellular region with a histidine tag at … (human, UniProt P02786 89-760).
T1 construct: Bought from Sino Biological; also called r human TfR-ECD (Histag); recombinant hTfR; not shown: histidine tag at the N-terminus
Description: BLI (Octet RED96), His-tagged TfR ECD on Ni-NTA sensor. (In general: Biolayer interferometry detects binding as a change in optical thickness at a sensor tip.)

For assay [2], the target named is T2, recombinant monkey TfR (r monkey TfR: Sino Biological Inc.), crab-eating monkey TfR extracellular region with … (crab-eating monkey (Macaca fascicularis)).
T2 construct: Bought from Sino Biological; also called r monkey TfR-ECD (Histag); not shown: histidine tag at the N-terminus
T2 chain: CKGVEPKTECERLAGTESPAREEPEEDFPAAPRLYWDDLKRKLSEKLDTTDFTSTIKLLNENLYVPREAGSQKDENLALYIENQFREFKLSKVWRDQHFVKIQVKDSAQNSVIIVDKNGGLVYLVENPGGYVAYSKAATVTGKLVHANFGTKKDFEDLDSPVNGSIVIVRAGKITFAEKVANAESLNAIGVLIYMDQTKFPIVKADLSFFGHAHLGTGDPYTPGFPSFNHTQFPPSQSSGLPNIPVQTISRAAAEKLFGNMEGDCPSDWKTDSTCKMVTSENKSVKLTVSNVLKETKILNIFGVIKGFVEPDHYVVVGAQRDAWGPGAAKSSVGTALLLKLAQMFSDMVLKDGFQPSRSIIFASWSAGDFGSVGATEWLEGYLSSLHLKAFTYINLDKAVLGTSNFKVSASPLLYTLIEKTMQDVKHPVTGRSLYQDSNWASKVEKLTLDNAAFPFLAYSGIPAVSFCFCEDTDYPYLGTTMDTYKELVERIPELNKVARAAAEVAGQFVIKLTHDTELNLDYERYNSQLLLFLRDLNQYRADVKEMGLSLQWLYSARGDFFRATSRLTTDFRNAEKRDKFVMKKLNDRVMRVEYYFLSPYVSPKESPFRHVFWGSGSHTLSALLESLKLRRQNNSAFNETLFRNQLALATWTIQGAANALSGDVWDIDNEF
The assay is described as above.

B1: Fab GS3-IDUA (other)
light: DIVMTQTPLSLSVTPGQPASISCRSSQSLVHSNGNTYLHWYLQKPGQSPQLLIYKVSNRFSGVPDRFSGSGSGTDFTLKISRVEAEDVGVYYCSQSTHVPWTFGQGTKVEIKRTVAAPSVFIFPPSDEQLKSGTASVVCLLNNFYPREAKVQWKVDNALQSGNSQESVTEQDSKDSTYSLSSTLTLSKADYEKHKVYACEVTHQGLSSPVTKSFNRGEC
heavy: EVQLVQSGAEVKKPGESLKISCKGSGYSFMNYWLGWVRQMPGKGLEWMGDIYPGGDYPTYSEKFKVQVTISADKSISTAYLQLSSLKASDTAMYYCARSGNYDEVAYWGQGTLVTVSSASTKGPSVFPLAPSSKSTSGGTAALGCLVKDYFPEPVTVSWNSGALTSGVHTFPAVLQSSGLYSLSSVVTVPSSSLGTQTYICNVNHKPSNTKVDKKVEPKSCDKTHTGGGGSGGGGSGGGGSAEAPHLVHVDAARALWPLRRFWRSTGFCPPLPHSQADQYVLSWDQQLNLAYVGAVPHRGIKQVRTHWLLELVTTRGSTGRGLSYNFTHLDGYLDLLRENQLLPGFELMGSASGHFTDFEDKQQVFEWKDLVSSLARRYIGRYGLAHVSKWNFETWNEPDHHDFDNVSMTMQGFLNYYDACSEGLRAASPALRLGGPGDSFHTPPRSPLSWGLLRHCHDGTNFFTGEAGVRLDYISLHRKGARSSISILEQEKVVAQQIRQLFPKFADTPIYNDEADPLVGWSLPQPWRADVTYAAMVVKVIAQHQNLLLANTTSAFPYALLSNDNAFLSYHPHPFAQRTLTARFQVNNTRPPHVQLLRKPVLTAMGLLALLDEEQLWAEVSQAGTVLDSNHTVGVLASAHRPQGPADAWRAAVLIYASDDTRAHPNRSVAVTLRLRGVPPGPGLVYVTRYLDNGLCSPDGEWRRLGRPVFPTAEQFRRMRAAEDPVAAAPRPLPAGGRLTLRPALRLPSLLLVHVCARPEKPPGQVTRLRALPLTQGQLVLVWSDEHVGSKCLWTYEIQFSQDGKAYTPVSRKPSTFNLFVFSPDTGAVSGSYRVRALDYWARPGPFSDPVPYLEVPVPRGPPSPGNP
notes: also called Fab HC-GS3-IDUA
On to B1, for which the kon in assay [1] was 293000 M⁻¹ s⁻¹. Also, in assay [2], the Kd stood at 1.32 nM, the koff was determined as 0.000292 s⁻¹ and the kon amounted to 221000 M⁻¹ s⁻¹.

B2: Fab GS3-SGSH (other)
light: DIVMTQTPLSLSVTPGQPASISCRSSQSLVHSNGNTYLHWYLQKPGQSPQLLIYKVSNRFSGVPDRFSGSGSGTDFTLKISRVEAEDVGVYYCSQSTHVPWTFGQGTKVEIKRTVAAPSVFIFPPSDEQLKSGTASVVCLLNNFYPREAKVQWKVDNALQSGNSQESVTEQDSKDSTYSLSSTLTLSKADYEKHKVYACEVTHQGLSSPVTKSFNRGEC
heavy: EVQLVQSGAEVKKPGESLKISCKGSGYSFMNYWLGWVRQMPGKGLEWMGDIYPGGDYPTYSEKFKVQVTISADKSISTAYLQLSSLKASDTAMYYCARSGNYDEVAYWGQGTLVTVSSASTKGPSVFPLAPSSKSTSGGTAALGCLVKDYFPEPVTVSWNSGALTSGVHTFPAVLQSSGLYSLSSVVTVPSSSLGTQTYICNVNHKPSNTKVDKKVEPKSCDKTHTGGGGSGGGGSGGGGSRPRNALLLLADDGGFESGAYNNSAIATPHLDALARRSLLFRNAFTSVSSCSPSRASLLTGLPQHQNGMYGLHQDVHHFNSFDKVRSLPLLLSQAGVRTGIIGKKHVGPETVYPFDFAYTEENGSVLQVGRNITRIKLLVRKFLQTQDDRPFFLYVAFHDPHRCGHSQPQYGTFCEKFGNGESGMGRIPDWTPQAYDPLDVLVPYFVPNTPAARADLAAQYTTVGRMDQGVGLVLQELRDAGVLNDTLVIFTSDNGIPFPSGRTNLYWPGTAEPLLVSSPEHPKRWGQVSEAYVSLLDLTPTILDWFSIPYPSYAIFGSKTIHLTGRSLLPALEAEPLWATVFGSQSHHEVTMSYPMRSVQHRHFRLVHNLNFKMPFPIDQDFYVSPTFQDLLNRTTAGQPTGWYKDLRHYYYRARWELYDRSRDPHETQNLATDPRFAQLLEMLRDQLAKWQWETHDPWVCAPDGVLEEKLSPQCQPLHNEL
notes: also called Fab HC-GS3-SGSH
Take B2: in assay [1], the dissociation constant (Kd) is less than 0.001 nM, the koff is less than 1e-07 s⁻¹ and the kon came out at 721000 M⁻¹ s⁻¹. Moreover, in assay [2], the Kd was less than 0.001 nM, the koff is less than 1e-07 s⁻¹ and the kon is 388000 M⁻¹ s⁻¹.

B3: Fab GS3-ARSA (other)
light: DIVMTQTPLSLSVTPGQPASISCRSSQSLVHSNGNTYLHWYLQKPGQSPQLLIYKVSNRFSGVPDRFSGSGSGTDFTLKISRVEAEDVGVYYCSQSTHVPWTFGQGTKVEIKRTVAAPSVFIFPPSDEQLKSGTASVVCLLNNFYPREAKVQWKVDNALQSGNSQESVTEQDSKDSTYSLSSTLTLSKADYEKHKVYACEVTHQGLSSPVTKSFNRGEC
heavy: EVQLVQSGAEVKKPGESLKISCKGSGYSFMNYWLGWVRQMPGKGLEWMGDIYPGGDYPTYSEKFKVQVTISADKSISTAYLQLSSLKASDTAMYYCARSGNYDEVAYWGQGTLVTVSSASTKGPSVFPLAPSSKSTSGGTAALGCLVKDYFPEPVTVSWNSGALTSGVHTFPAVLQSSGLYSLSSVVTVPSSSLGTQTYICNVNHKPSNTKVDKKVEPKSCDKTHTGGGGSGGGGSGGGGSRPPNIVLIFADDLGYGDLGCYGHPSSTTPNLDQLAAGGLRFTDFYVPVSLCTPSRAALLTGRLPVRMGMYPGVLVPSSRGGLPLEEVTVAEVLAARGYLTGMAGKWHLGVGPEGAFLPPHQGFHRFLGIPYSHDQGPCQNLTCFPPATPCDGGCDQGLVPIPLLANLSVEAQPPWLPGLEARYMAFAHDLMADAQRQDRPFFLYYASHHTHYPQFSGQSFAERSGRGPFGDSLMELDAAVGTLMTAIGDLGLLEETLVIFTADNGPETMRMSRGGCSGLLRCGKGTTYEGGVREPALAFWPGHIAPGVTHELASSLDLLPTLAALAGAPLPNVTLDGFDLSPLLLGTGKSPRQSLFFYPSYPDEVRGVFAVRTGKYKAHFFTQGSAHSDTTADPACHASSSLTAHEPPLLYDLSKDPGENYNLLGGVAGATPEVLQALKQLQLLKAQLDAAVTFGPSQVARGEDPALQICCHPGCTPRPACCHCPDPHA
notes: also called Fab HC-GS3-ARSA
As for B3, the kon in assay [1] came out at 670000 M⁻¹ s⁻¹. For the same molecule, in assay [2], the Kd amounted to 1.09 nM, the koff was 0.000281 s⁻¹ and the kon came to 258000 M⁻¹ s⁻¹.

B4: Fab GS3-ASM (other)
light: DIVMTQTPLSLSVTPGQPASISCRSSQSLVHSNGNTYLHWYLQKPGQSPQLLIYKVSNRFSGVPDRFSGSGSGTDFTLKISRVEAEDVGVYYCSQSTHVPWTFGQGTKVEIKRTVAAPSVFIFPPSDEQLKSGTASVVCLLNNFYPREAKVQWKVDNALQSGNSQESVTEQDSKDSTYSLSSTLTLSKADYEKHKVYACEVTHQGLSSPVTKSFNRGEC
heavy: EVQLVQSGAEVKKPGESLKISCKGSGYSFMNYWLGWVRQMPGKGLEWMGDIYPGGDYPTYSEKFKVQVTISADKSISTAYLQLSSLKASDTAMYYCARSGNYDEVAYWGQGTLVTVSSASTKGPSVFPLAPSSKSTSGGTAALGCLVKDYFPEPVTVSWNSGALTSGVHTFPAVLQSSGLYSLSSVVTVPSSSLGTQTYICNVNHKPSNTKVDKKVEPKSCDKTHTGGGGSGGGGSGGGGSLSDSRVLWAPAEAHPLSPQGHPARLHRIVPRLRDVFGWGNLTCPICKGLFTAINLGLKKEPNVARVGSVAIKLCNLLKIAPPAVCQSIVHLFEDDMVEVWRRSVLSPSEACGLLLGSTCGHWDIFSSWNISLPTVPKPPPKPPSPPAPGAPVSRILFLTDLHWDHDYLEGTDPDCADPLCCRRGSGLPPASRPGAGYWGEYSKCDLPLRTLESLLSGLGPAGPFDMVYWTGDIPAHDVWHQTRQDQLRALTTVTALVRKFLGPVPVYPAVGNHESTPVNSFPPPFIEGNHSSRWLYEAMAKAWEPWLPAEALRTLRIGGFYALSPYPGLRLISLNMNFCSRENFWLLINSTDPAGQLQWLVGELQAAEDRGDKVHIIGHIPPGHCLKSWSWNYYRIVARYENTLAAQFFGHTHVDEFEVFYDEETLSRPLAVAFLAPSATTYIGLNPGYRVYQIDGNYSGSSHVVLDHETYILNLTQANIPGAIPHWQLLYRARETYGLPNTLPTAWHNLVYRMRGDMQLFQTFWFLYHKGHPPSEPCGTPCRLATLCAQLSARADSPALCRHLMPDGSLPEAQSLWPRPLFC
notes: also called Fab HC-GS3-ASM
Regarding B4, in assay [1], the Kd was 0.0689 nM, the koff came out at 3.63e-05 s⁻¹ and the kon came to 526000 M⁻¹ s⁻¹. Besides, in assay [2], the Kd was 2 nM, the koff was 0.000549 s⁻¹ and the kon worked out at 274000 M⁻¹ s⁻¹.

In general, kon refers to a measure of how fast the partners come together. Usually Kd stands for a measure of binding affinity in units of concentration. Broadly, the koff is the rate constant with which the complex falls apart.
